Earlier results in patent US10603364B2, “Lysosomal targeting and uses thereof” (Shire Human Genetic Therapies, Inc., priority 2014, dated 2020).

What was measured:
IGF-I receptor = IGF-I receptor (Homo sapiens, UniProt P08069)
[1] = molecular target: M6P/IGF II receptor (cation-independent mannose-6-phosphate receptor) (Homo sapiens, UniProt P11717)
M6P/IGF II receptor (cation-independent mannose-6-phosphate receptor), sequence (P11717 41-2491): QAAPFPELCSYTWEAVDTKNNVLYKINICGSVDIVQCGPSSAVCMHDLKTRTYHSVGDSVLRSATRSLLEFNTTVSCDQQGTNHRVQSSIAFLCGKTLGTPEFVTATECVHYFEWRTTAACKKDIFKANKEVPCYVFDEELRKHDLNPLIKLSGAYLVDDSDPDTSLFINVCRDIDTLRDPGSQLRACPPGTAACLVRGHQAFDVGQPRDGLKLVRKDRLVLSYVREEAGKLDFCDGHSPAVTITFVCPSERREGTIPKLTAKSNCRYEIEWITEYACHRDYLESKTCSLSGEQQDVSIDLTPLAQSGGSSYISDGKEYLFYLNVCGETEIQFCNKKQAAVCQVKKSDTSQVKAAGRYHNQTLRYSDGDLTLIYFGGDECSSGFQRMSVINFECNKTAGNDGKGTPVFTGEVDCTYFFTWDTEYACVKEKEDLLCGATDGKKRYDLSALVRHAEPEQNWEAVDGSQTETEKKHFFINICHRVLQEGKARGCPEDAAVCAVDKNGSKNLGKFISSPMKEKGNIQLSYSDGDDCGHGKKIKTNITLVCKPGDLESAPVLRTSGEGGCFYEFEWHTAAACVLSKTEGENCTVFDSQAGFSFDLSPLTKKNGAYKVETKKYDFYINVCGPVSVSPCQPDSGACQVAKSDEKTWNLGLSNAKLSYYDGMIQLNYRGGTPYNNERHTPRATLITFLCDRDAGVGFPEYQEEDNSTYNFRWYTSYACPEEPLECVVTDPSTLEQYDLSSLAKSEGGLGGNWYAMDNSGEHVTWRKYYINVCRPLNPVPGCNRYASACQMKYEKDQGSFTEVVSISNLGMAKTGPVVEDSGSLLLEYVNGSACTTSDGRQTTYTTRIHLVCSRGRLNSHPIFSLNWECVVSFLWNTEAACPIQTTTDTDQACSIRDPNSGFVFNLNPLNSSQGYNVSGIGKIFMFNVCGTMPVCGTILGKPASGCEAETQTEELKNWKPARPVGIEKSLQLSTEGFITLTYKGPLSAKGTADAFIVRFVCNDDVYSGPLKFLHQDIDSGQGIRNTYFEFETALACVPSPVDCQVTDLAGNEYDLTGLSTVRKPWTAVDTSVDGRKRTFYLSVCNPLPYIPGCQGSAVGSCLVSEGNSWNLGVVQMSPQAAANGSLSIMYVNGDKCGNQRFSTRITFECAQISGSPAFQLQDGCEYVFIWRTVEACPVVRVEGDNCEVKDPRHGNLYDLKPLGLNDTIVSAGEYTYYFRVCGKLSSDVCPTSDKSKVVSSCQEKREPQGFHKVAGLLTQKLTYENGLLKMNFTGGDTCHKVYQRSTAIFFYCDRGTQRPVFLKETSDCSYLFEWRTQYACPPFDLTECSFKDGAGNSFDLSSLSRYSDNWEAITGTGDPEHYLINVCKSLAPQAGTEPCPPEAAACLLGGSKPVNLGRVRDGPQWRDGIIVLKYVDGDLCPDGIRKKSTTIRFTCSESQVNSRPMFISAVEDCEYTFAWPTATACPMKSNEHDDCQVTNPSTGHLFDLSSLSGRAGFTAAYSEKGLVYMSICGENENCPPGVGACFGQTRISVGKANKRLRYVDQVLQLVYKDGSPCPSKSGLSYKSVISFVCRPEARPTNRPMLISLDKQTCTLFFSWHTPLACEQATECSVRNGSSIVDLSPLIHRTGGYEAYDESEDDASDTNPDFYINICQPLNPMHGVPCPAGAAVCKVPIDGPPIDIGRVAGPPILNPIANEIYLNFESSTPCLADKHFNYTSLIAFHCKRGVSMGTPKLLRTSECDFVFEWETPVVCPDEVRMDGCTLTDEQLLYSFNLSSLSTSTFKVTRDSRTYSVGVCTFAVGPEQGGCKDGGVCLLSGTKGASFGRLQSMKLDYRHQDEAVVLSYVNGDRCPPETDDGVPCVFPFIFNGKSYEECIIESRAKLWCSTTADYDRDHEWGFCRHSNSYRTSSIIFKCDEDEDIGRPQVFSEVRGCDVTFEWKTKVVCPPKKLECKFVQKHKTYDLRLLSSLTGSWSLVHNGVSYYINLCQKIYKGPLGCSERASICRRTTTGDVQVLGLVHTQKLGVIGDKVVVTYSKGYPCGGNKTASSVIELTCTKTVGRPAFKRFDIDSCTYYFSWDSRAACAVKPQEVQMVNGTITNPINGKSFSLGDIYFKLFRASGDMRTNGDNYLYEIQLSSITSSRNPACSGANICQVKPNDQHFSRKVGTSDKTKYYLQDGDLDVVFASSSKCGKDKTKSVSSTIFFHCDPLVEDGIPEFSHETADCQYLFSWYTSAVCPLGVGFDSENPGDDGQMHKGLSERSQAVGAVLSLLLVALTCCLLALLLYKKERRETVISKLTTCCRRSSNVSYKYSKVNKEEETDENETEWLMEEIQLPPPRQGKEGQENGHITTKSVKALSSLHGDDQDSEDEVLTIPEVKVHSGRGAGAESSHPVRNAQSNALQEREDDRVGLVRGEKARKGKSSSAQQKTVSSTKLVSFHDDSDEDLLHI

IGF-I receptor, sequence (P08069 31-736 limits assumed, species assumed): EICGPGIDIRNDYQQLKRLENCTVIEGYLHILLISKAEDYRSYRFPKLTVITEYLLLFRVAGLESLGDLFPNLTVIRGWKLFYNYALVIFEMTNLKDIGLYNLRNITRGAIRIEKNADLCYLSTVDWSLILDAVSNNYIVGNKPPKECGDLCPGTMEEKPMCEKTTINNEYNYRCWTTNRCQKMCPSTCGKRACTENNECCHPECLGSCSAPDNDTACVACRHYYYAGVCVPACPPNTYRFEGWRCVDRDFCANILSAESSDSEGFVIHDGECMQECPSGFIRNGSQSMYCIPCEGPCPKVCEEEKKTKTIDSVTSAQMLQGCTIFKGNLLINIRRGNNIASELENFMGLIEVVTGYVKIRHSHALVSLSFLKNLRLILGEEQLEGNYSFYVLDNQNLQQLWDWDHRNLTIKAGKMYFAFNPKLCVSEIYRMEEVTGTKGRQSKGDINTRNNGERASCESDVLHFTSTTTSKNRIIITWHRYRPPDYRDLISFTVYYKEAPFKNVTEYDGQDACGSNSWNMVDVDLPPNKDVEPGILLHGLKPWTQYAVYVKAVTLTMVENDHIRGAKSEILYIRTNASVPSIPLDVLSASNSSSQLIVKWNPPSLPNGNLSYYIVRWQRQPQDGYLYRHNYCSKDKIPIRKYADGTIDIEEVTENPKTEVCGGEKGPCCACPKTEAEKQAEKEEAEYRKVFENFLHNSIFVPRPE
IGF-I receptor, sequence (P08069 741-1367 partner limits assumed, species assumed): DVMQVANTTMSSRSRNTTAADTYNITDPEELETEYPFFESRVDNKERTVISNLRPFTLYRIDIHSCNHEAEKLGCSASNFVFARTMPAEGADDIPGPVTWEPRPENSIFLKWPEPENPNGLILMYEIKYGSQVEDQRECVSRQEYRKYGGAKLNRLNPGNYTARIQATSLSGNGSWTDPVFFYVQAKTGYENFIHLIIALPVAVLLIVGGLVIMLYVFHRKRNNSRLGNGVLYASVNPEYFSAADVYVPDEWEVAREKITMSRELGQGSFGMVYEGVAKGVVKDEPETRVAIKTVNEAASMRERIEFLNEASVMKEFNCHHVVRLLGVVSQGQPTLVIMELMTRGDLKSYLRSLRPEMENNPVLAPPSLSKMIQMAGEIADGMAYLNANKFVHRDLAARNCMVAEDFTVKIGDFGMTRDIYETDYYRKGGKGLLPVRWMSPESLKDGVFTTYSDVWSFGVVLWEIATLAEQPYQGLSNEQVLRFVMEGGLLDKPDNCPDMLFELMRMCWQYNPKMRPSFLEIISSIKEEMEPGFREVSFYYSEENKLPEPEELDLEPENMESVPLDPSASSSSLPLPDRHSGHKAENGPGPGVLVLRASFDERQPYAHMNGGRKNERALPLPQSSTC

decrease in ability to bind IGF-I receptor compared to full-length IGF-II (IGF-I receptor): 30 fold
higher affinity for M6P/IGF II receptor compared to full-length IGF-II [1]: 2-10 fold
Substance: IGF-II sequence containing amino acid 8-67: amino acid residues 8-67 of the Insulin-like Growth Factor II peptide sequence, SEQ ID NO:21
